Experiments:
[1] = target: human GLT25D1/ColGalT1 (procollagen galactosyltransferase 1), amino acids 30-622, wild type (human) (UniProt Q8NBJ5); test: cryo-EM structure
cryo-EM structure = target: the molecule itself; test: cryo-EM structure

## human GLT25D1/ColGalT1 (procollagen galactosyltransferase 1), amino acids 30-622, wild type (from UniProt Q8NBJ5 30-622) (enzyme)
[1]
  stoichiometry N: 2

B1: human LH3/PLOD3 (multifunctional procollagen lysine hydroxylase and glycosyltransferase LH3), wild type (enzyme)
chain: SDRPRGRDPVNPEKLLVITVATAETEGYLRFLRSAEFFNYTVRTLGLGEEWRGGDVARTVGGGQKVRWLKKEMEKYADREDMIIMFVDSYDVILAGSPTELLKKFVQSGSRLLFSAESFCWPEWGLAEQYPEVGTGKRFLNSGGFIGFATTIHQIVRQWKYKDDDDDQLFYTRLYLDPGLREKLSLNLDHKSRIFQNLNGALDEVVLKFDRNRVRIRNVAYDTLPIVVHGNGPTKLQLNYLGNYVPNGWTPEGGCGFCNQDRRTLPGGQPPPRVFLAVFVEQPTPFLPRFLQRLLLLDYPPDRVTLFLHNNEVFHEPHIADSWPQLQDHFSAVKLVGPEEALSPGEARDMAMDLCRQDPECEFYFSLDADAVLTNLQTLRILIEENRKVIAPMLSRHGKLWSNFWGALSPDEYYARSEDYVELVQRKRVGVWNVPYISQAYVIRGDTLRMELPQRDVFSGSDTDPDMAFCKSFRDKGIFLHLSNQHEFGRLLATSRYDTEHLHPDLWQIFDNPVDWKEQYIHENYSRALEGEGIVEQPCPDVYWFPLLSEQMCDELVAEMEHYGQWSGGRHEDSRLAGGYENVPTVDIHMKQVGYEDQWLQLLRTYVGPMTESLFPGYHTKARAVMNFVVRYRPDEQPSLRPHHDSSTFTLNVALNHKGLDYEGGGCRFLRYDCVISSPRKGWALLHPGRLTHYHEGLPTTWGTRYIMVSFVDP
modifications: N-linked glycans at N63 and N548 (seen in the cryo-EM map)
cryo-EM structure
  stoichiometry N: 2
